Data set [1] in a line: folding stability dG unfold (combined trypsin and chymotrypsin); higher = more stable. In a few lines:
(§1)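 K50 was inferred by Bayesian fitting of sequencing counts obtained after protease digestion of designed mini-proteins. Unfolding free energy was derived by comparison with a sequence-predicted unfolded-state K50 and a shared folded-state K50, for each protease or both combined. The mini-proteins were under 80 residues, had no cysteine, were carried in a PA-tagged cDNA display construct, and were kept only if AlphaFold2 dimer inter-PAE exceeded 15.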

Data set [2] in a line: folding stability dG unfold from trypsin proteolysis; higher = more stable. The essentials: as §1
Data set [3] can be described thus: folding stability dG unfold from chymotrypsin proteolysis; higher = more stable. The essentials: as §1

± gives the half width of the 95% confidence interval.

Consider “SMNIHIPILTRPDVDEETIEEEVEALAAELAEKLGLPEGVEVEIEPEPLPEDGVVYHVTLRVGDVEFKGESA [r9_776_TrMRF]”, for which the figures for the “folding stability dG unfold” value in data set [1], in data set [2] and in data set [3] were 0.0299 ± 0.33 kcal/mol, 0.168 ± 0.14 kcal/mol and 0.0835 ± 0.4 kcal/mol, respectively.
For “SMNIVEIEVEEKIIGDTTTITIPIKVNGPAVSEEEIKKIVEDIFKKKGLKINIKIEKDPNSGVITITIIESA [r9_717_JUSTAS]”, in that order: 2.33 ± 0.19 kcal/mol, 2.01 ± 0.15 kcal/mol and 2.55 ± 0.12 kcal/mol.
As for “SMNPIGNPITLPDGTTITIIPDLGLILIYDPETGTFIARLILVDENGIPHIFPFIGKIDPETGEIIEIDPSA [r9_122_TrMRF]”, the “folding stability dG unfold” value in data set [1] was 3.87 ± 0.069 kcal/mol; in data set [2] it was 3.31 ± 0.11 kcal/mol; in data set [3], 4.13 ± 0.062 kcal/mol.
On to “SMPEILDVREDPDAPGALTFRVKLPDGEATVVIPYDPETGTFTAVRYYPDGEEVREFDSFEDALEAILEDSA [r9_366_TrMRF]”, for which the “folding stability dG unfold” value stood at 1.49 ± 0.053 kcal/mol in data set [1], 1.45 ± 0.019 kcal/mol in data set [2] and 1.46 ± 0.051 kcal/mol in data set [3].
For “SMPGSITVEIEVEEEEDPERGGRRIKKLLIKKVTYKDEKGNSSDEVANEIKNALKEKLEKEGKPAEIELTSA [r9_261_JUSTAS]”, in that order: 1.27 ± 0.37 kcal/mol, 1.35 ± 0.081 kcal/mol and 1.11 ± 0.23 kcal/mol.
Taken in the same sequence, the figures for “SMPIEVRVDLERLEDGTLLAVIEIRHPDVQVAEDAAIELARELFPEDVELRIETTPDGRVIAPILLPLPESA [r9_646_TrMRF]” were 2.58 ± 0.22 kcal/mol, 3.14 ± 0.14 kcal/mol and 1.74 ± 0.17 kcal/mol.
For “SMPKKIIVLEVDEEEIKEFLEKLELGEDTEVKILLSFPDGKTALLEIGPNEIKSIKPIDAIPEKAYIVIASA [r9_849_TrMRF]”, in that order: 1.08 ± 0.2 kcal/mol, 1.71 ± 0.14 kcal/mol and 0.755 ± 0.14 kcal/mol.
“SMPLPFEATVTVPVRDEETGETYTVTVKVEAVNPAVPRPLPDGSIEYEPIPLETVLEIVEKAAEELAKALSA [r9_698_TrMRF]”: the “folding stability dG unfold” value in data set [1] turned out to be 1.56 ± 0.14 kcal/mol; in data set [2], 1.27 ± 0.074 kcal/mol; in data set [3], 1.55 ± 0.058 kcal/mol.
For “SMQINVERNPENGTVIIHIPMEDMPPENIREILKDLPPNNKRVTIHMHDPPYMRWLKELAKEKGFPIKITSA [r9_919_TrROS]”, in that order: 0.623 ± 0.15 kcal/mol, 0.824 ± 0.098 kcal/mol and 0.453 ± 0.21 kcal/mol.
For “SMRVVLVRPVPPELKEAELELRLPLPDGSEVEVKAETGEDFVVVTIELDDESAAEAVVEELEKLLEELLGSA [r9_790_TrMRF]”, in that order: 1.13 ± 0.053 kcal/mol, 0.926 ± 0.019 kcal/mol and 1.17 ± 0.034 kcal/mol.
Taken in the same sequence, the figures for “SMSEKVEIDPAAIAEALKAGTEYEFDIKVTVTLFDPSNGKKVSTEEKVVKVKLKIPPPSPLPDPKNGYLLSA [r9_396_JUSTAS]” were 1.29 ± 0.2 kcal/mol, 1.11 ± 0.038 kcal/mol and 1.4 ± 0.079 kcal/mol.
Turning to “SMSEVVEESEFNGEKVITIKVTLPDGTPVTVTITLSPEGEGTVTTVPPSSSTSTTTTVPVSQVDEVLEALSA [r9_91_JUSTAS]”, the “folding stability dG unfold” value in data set [1] came to 1.61 ± 0.074 kcal/mol; in data set [2] it was 1.95 ± 0.061 kcal/mol; in data set [3], 1.4 ± 0.031 kcal/mol.
In the case of “SMSPEARALARELAERLRELFPGAEIEIRVEVEVNEDGEVTIRVEIRVRPAPPPEVRVVRDEDGRERRLRSA [r9_82_TrROS_Hall]”, the “folding stability dG unfold” value in data set [1] turned out to be 1.8 ± 0.074 kcal/mol; in data set [2] it was 1.09 ± 0.1 kcal/mol; in data set [3], 2.04 ± 0.04 kcal/mol.
“SMSRPVEVEFELPLEGEGPVRLRATLVVDPESGVVEIPVRARFPEREEDVDLPPELLERLARRVLEELGGSA [r9_1136_TrMRF]”: the “folding stability dG unfold” value in data set [1] was found to be 1.1 ± 0.034 kcal/mol; in data set [2], 0.744 ± 0.031 kcal/mol; in data set [3] it was 1.25 ± 0.034 kcal/mol.
For “SMTIEGMSPREAVRNIIEEFIEMFEANGNPPMPIKIRFPGNGKPIYEFPIQSKEQLLDQIENGVPVSIEFSA [r9_718_TrROS]”, the “folding stability dG unfold” value is 0.183 ± 0.1 kcal/mol in data set [1], 0.604 ± 0.027 kcal/mol in data set [2] and -0.498 ± 0.18 kcal/mol in data set [3].
Taken in the same sequence, the figures for “SMTIKLPSKDFKLETLPDGTIKLTVKEPDGTVVTYTFPKGDKITKIEKITPDTIKLTFEKKPRLNPEILLSA [r9_501_JUSTAS]” were 3.07 ± 0.22 kcal/mol, 2.16 ± 0.097 kcal/mol and 3.65 ± 0.053 kcal/mol.
On to “SMTIRVEGVPPGVTAEELAARLRAELEAAGYEVTSIKVTRRADGSLVVEIEVKPAPPPEPVEVVEEREEESA [r9_953_TrROS_Hall]”, for which the results for the “folding stability dG unfold” value in data set [1], in data set [2] and in data set [3] were 3.62 ± 0.17 kcal/mol, 3.4 ± 0.13 kcal/mol and 3.75 ± 0.16 kcal/mol, respectively.
Taken in the same sequence, the figures for “SMTITFKTEEEAKKAAEELLKELEKKLKPGQKIKITVTTEDGKTITIEIEIKPPKKEVEVDEETGELKEKSA [r9_596_TrROS_Hall]” were 1.97 ± 0.18 kcal/mol, 0.898 ± 0.073 kcal/mol and 2.26 ± 0.081 kcal/mol.
Taken in the same sequence, the figures for “SMTITIVVEAPPEEAKEKAEELEKELKEKLDKLREEAKKKGLSEEEIEEELKIKIKVVVVSKEDLEKLKPSA [r9_961_TrROS_Hall]” were 0.431 ± 0.13 kcal/mol, 0.989 ± 0.082 kcal/mol and -0.317 ± 0.11 kcal/mol.
Regarding “SMTLTETKVLTTETLSGEEFAKRSGVPVEEIRKSGVKYNVTVTPVEVTYYDPETGKTYKRTSTTVTITPESA [r9_382_JUSTAS]”, the “folding stability dG unfold” value in data set [1] was 0.686 ± 0.073 kcal/mol; in data set [2], 0.354 ± 0.083 kcal/mol; in data set [3], 0.842 ± 0.11 kcal/mol.
With “SMTLTLEDGKLTLTVTETRTTVERDAADPGKWTTRTETRTVTLTLPLEDLEALKKLLEALPPGARVELVPSA [r9_476_TrROS_Hall]”, the “folding stability dG unfold” value was 3.91 ± 0.29 kcal/mol in data set [1], 3.23 ± 0.09 kcal/mol in data set [2] and 4.9 ± 0.26 kcal/mol in data set [3].
For “SMTLVLENEDGSLYRIEFDEETGEIYIYNAETGEKYRITFKDGKTEEINAKDLSLEELKALPGLKIEPVPSA [r9_205_TrROS_Hall]”, in that order: 3.13 ± 0.056 kcal/mol, 2.74 ± 0.061 kcal/mol and 3.285 ± 0.023 kcal/mol.
Taken in the same sequence, the figures for “SMTTTTLPDGTTVTTLSDGTVKTVTHYPDSVVTETSPITYKLPDGREFTTKEEAEAYEKETGIPVSPALASA [r9_660_JUSTAS]” were 0.4 ± 0.16 kcal/mol, 0.62 ± 0.036 kcal/mol and 0.255 ± 0.23 kcal/mol.
Taken in the same sequence, the figures for “SMTVTTDPSSLTFTLPPTYTSVEQAREALEELGFKLPSSVKSITIESVDEGKNLNTITVTFDDPEALKKLSA [r9_820_JUSTAS]” were 0.913 ± 0.082 kcal/mol, 0.74 ± 0.03 kcal/mol and 0.922 ± 0.089 kcal/mol.
Regarding “SMTVVTVEKTPDGGVTITVYVPETGEEVEIPVTDPEVQKKATEDPNTTVKVPKEVLESFYPDRITSLSYTSA [r9_390_JUSTAS]”, the “folding stability dG unfold” value in data set [1] was 0.0747 ± 0.19 kcal/mol; in data set [2], 0.134 ± 0.098 kcal/mol; in data set [3] it was -0.169 ± 0.22 kcal/mol.
For “SMVIEIPDGTPLEEIIKKVKEAKEKGEPMEVVVTVPNDESVIQALKEAGFEVEVEKDEVKNVTLYKVKLPSA [r9_759_JUSTAS]”, in that order: 2.59 ± 0.076 kcal/mol, 2.7 ± 0.15 kcal/mol and 2.53 ± 0.025 kcal/mol.
Taken in the same sequence, the figures for “SMVKTIEIEIVLPPGEWVKLTEEDIKEKIEKELPGWKILSIDITKEERLVPGGTEPLVVIKAKILVEKKESA [r9_1189_JUSTAS]” were 3.83 ± 0.21 kcal/mol, 4.26 ± 0.26 kcal/mol and 3.19 ± 0.14 kcal/mol.
For “SMVLARIKVRVRDPVTGEELDVEIDLLAPVEVAEEAAEEFRKLFPGLEVEVDLVEVVPLPPVTPEQLAKESA [r9_421_TrMRF]”, in that order: 2.48 ± 0.083 kcal/mol, 1.82 ± 0.046 kcal/mol and 2.823 ± 0.017 kcal/mol.
Consider “SMVTETSEEVKLPSPVRLLIDKKITTFPESGVVEVPTLVTVIPPSGPDTTLPYRVLYTINDDTYTEKRLLSA [r9_154_JUSTAS]”, for which the “folding stability dG unfold” value was -0.125 ± 0.14 kcal/mol in data set [1], -0.277 ± 0.085 kcal/mol in data set [2] and -0.0857 ± 0.12 kcal/mol in data set [3].
Taken in the same sequence, the figures for “SMVTVDEKEDPNSDNKIYTVSLPENGEDVITITKAPDGTTTVTLHYPDGSTTTKTFPGNTPVTEAIKLLLSA [r9_346_JUSTAS]” were 1.74 ± 0.15 kcal/mol, 2.23 ± 0.12 kcal/mol and 1.39 ± 0.083 kcal/mol.
For “SMVTVERPESTKTIDAPPSATVEFDPATGTLRVYSPDGTATTVPLSPTWSIQPSDNSVTVTAPPASPAAPSA [r9_653_JUSTAS]”, in that order: 0.421 ± 0.066 kcal/mol, 0.056 ± 0.059 kcal/mol and 0.669 ± 0.1 kcal/mol.
Taken in the same sequence, the figures for “SMVVLPVRYPDLSPEEARAAVEALAAEIEAAVGAEVRVEVEVERAPDGTPVRVLVTATVVIRTAADALLLSA [r9_21_JUSTAS]” were 1.09 ± 0.12 kcal/mol, 0.946 ± 0.061 kcal/mol and 1.16 ± 0.068 kcal/mol.
For the sequence “SMYKLSVYRNGQPVPEEEALERVKRIEEELGREVDPEELARLLAAEPDTVVTVTKYAEPGKPIGTLTYTRSA [r9_1045_JUSTAS]”, the “folding stability dG unfold” value in data set [1] was 1.39 ± 0.16 kcal/mol; in data set [2] it was 1.32 ± 0.08 kcal/mol; in data set [3] it was 1.4 ± 0.17 kcal/mol.
For “SMYVIETSANKTYTVNVPPDGLVTITYPDGSTETRKFTSEEDLEAFAEELSKKYPDAPATIKPVPLEELGSA [r9_1206_JUSTAS]”, in that order: 0.959 ± 0.25 kcal/mol, 1.21 ± 0.11 kcal/mol and 0.473 ± 0.26 kcal/mol.
Regarding “SNELAKEIADELKKQGYEVKDVEVQYSPDDGMVEIEARIRHPDDGRQYRIDIHVNPDDGKITQVKIEPRPSA [r9_814_TrROS]”, the “folding stability dG unfold” value turned out to be 0.825 ± 0.17 kcal/mol in data set [1], 0.857 ± 0.028 kcal/mol in data set [2] and 0.644 ± 0.17 kcal/mol in data set [3].
Taken in the same sequence, the figures for “SNPISAVVPSPGGRYVLVVEYKDGSVEVYEFEGLSTAEEAKERALALLKESTEGEPREITRVVVLPAPPGSA [r9_1135_TrMRF]” were 4.33 ± 0.11 kcal/mol, 4.3 ± 0.17 kcal/mol and 4.3 ± 0.051 kcal/mol.

For the origin of these results see the supplement of paper PMC12764529.
